± gives the uncertainty stated by the source.
Assay: protein stability index of a GFP-peptide fusion (yeast GPS) (PSI 1-4); higher = more stable; sorted into four equal gates, so the index is relative within each strain
Method in brief: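 Yeast carrying a pooled library were grown to mid-log phase in leucine-free medium. Each library plasmid expresses Cherry and has a tiled 17-residue yeast protein peptide fused downstream of GFP. Cells were sorted into four equal gates by GFP/Cherry ratio, and plasmids from each gate were PCR-amplified, Illumina-sequenced and assigned to strains by barcode. Summing, across gates, the read frequency times the gate number gave each peptide's protein stability index.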

Row | Sequence | protein stability index (doa10∆) | protein stability index (pdr5∆) | protein stability index (san1∆) | protein stability index (ubr1∆)
1 | SSPDTMKLTDLLSLINS [SNF12] | 2.69 ± 0.042 | 2.73 ± 0.039 | 2.81 ± 0.047 | 2.67 ± 0.036
2 | VVAAAEDDDNEQHEEKA [QCR6] | 2.87 ± 0.12 | 2.98 ± 0.15 |  | 3.07 ± 0.16
3 | SSVFLPSRKDCMEVASA [BRR2] | 2.73 ± 0.063 | 3.4 ± 0.077 | 3.33 ± 0.066 | 3.19 ± 0.059
4 | VVDFTSLPEELKKRYDL [YMR129W/POM152] | 2.14 ± 0.21 | 2.33 ± 0.15 | 2.96 ± 0.088 | 2.62 ± 0.12
5 | NSDDILSLHENYPQDEI [POP1] | 2.94 ± 0.06 | 3.12 ± 0.073 | 2.82 ± 0.084 | 2.92 ± 0.05
6 | VNYLISNTMYSVRLFSF [YJL039C/NUP192] | 1.43 ± 0.046 | 1.42 ± 0.058 | 1.34 ± 0.088 | 1.6 ± 0.056
7 | LSATQFTQPALTLMEKA [FAS1] | 2.37 ± 0.073 | 2.56 ± 0.058 | 2.7 ± 0.049 | 2.58 ± 0.054
8 | SEEINQYVTQIEQEKQE [PRE6] | 2.68 ± 0.075 | 1.76 ± 0.063 | 2.59 ± 0.085 | 2.62 ± 0.086
9 | ELLSKYKEQIIQGFYWA [SNU114] | 2.99 ± 0.073 | 2.4 ± 0.067 | 2.47 ± 0.077 | 2.17 ± 0.085
10 | TSDLVKSLGLKLPLSVI [RPS17A] | 1.12 ± 0.07 | 1.52 ± 0.078 | 1.86 ± 0.16 | 1.95 ± 0.091
11 | SATPNAAAFSQQQNASS [GAL11] | 2.94 ± 0.063 | 3.1 ± 0.054 | 2.89 ± 0.035 | 3.09 ± 0.041
12 | KTYGISDDIISQVDPIT [FAS2] | 1.71 ± 0.16 | 1.1 ± 0.12 |  | 1.06 ± 0.13
13 | PSLELSAEYLQMSLEAN [YJR042W/NUP85] | 1.78 ± 0.087 | 2.15 ± 0.095 | 2.54 ± 0.18 | 2.4 ± 0.07
14 | TAELIKELKEKEAAESP [PUP2] | 2.79 ± 0.058 | 3.3 ± 0.094 | 3.21 ± 0.12 | 3.22 ± 0.074
15 | DTAPKPNIVEIDLDNDE [DLS1] | 3.27 ± 0.082 | 3.4 ± 0.058 | 3.03 ± 0.079 | 3.27 ± 0.091
16 | FLMGIFNSVVNLSRYPK [MTR3] | 2.6 ± 0.091 | 2.5 ± 0.089 | 2.49 ± 0.13 | 2.32 ± 0.13
17 | MCVSKGNASLKYIALQV [YCG1] | 2.54 ± 0.099 | 2.02 ± 0.077 | 1.48 ± 0.12 | 2.6 ± 0.084
18 | HLKHENANDETTAVEDE [RPB4] | 2.92 ± 0.067 | 3.08 ± 0.093 | 3.17 ± 0.086 | 3.17 ± 0.14
19 | QLGEWAGLGKIDREGNA [RPS12] | 3.67 ± 0.28 |  | 3.4 ± 0.26 | 3.35 ± 0.14
20 | YNRYRDLMISCLMNQET [MTR3] | 2.44 ± 0.062 | 2.56 ± 0.063 | 2.31 ± 0.084 | 2.5 ± 0.062
21 | EASTVPWGDYLQLETPA [BRR2] | 1.42 ± 0.066 | 2.13 ± 0.16 | 2.58 ± 0.14 | 1.53 ± 0.098
22 | SDNISRKYEISFGKIYV [RPB2] | 2.79 ± 0.059 | 3.32 ± 0.073 | 2.78 ± 0.068 | 2.72 ± 0.072
23 | EDLLECLDRCKEQYNRY [MTR3] | 3.18 ± 0.11 | 3.46 ± 0.08 | 3.24 ± 0.079 | 3.38 ± 0.085
24 | LIEFQPSQGVHYKVPTD [MED6] | 2.6 ± 0.066 | 2.98 ± 0.061 | 2.93 ± 0.062 | 2.93 ± 0.046
25 | AWRTLVGVSHTNEEVRN [CYT1] |  | 2.98 ± 0.13 | 1.92 ± 0.15 | 2.18 ± 0.094
26 | IVFDICQILDGELDVLQ [PRP8] | 2.7 ± 0.11 | 2.63 ± 0.11 | 2.39 ± 0.1 | 3.07 ± 0.11
27 | PSLIQEEEEDTTTTANI [NUT1] | 3.04 ± 0.11 | 3.12 ± 0.16 | 3.18 ± 0.12 | 3.16 ± 0.19

Row | Sequence | protein stability index (doa10∆) | protein stability index (pdr5∆) | protein stability index (san1∆) | protein stability index (ubr1∆)
28 | DSTSHNNGSSDKSLDSS [MED1] | 3.04 ± 0.062 | 3.11 ± 0.067 | 3.08 ± 0.07 | 3.08 ± 0.046
29 | CVQLIKCLVEKSICFEN [SWI1] | 2.49 ± 0.25 | 2.61 ± 0.25 | 2.28 ± 0.17 | 2.74 ± 0.15
30 | AKALESLASCLRSTEYS [POP1] | 3.08 ± 0.16 | 3.25 ± 0.14 | 2.8 ± 0.13 | 2.61 ± 0.17
31 | YSLEAIKLGSTAIGIAT [PUP2] | 1.54 ± 0.066 | 1.79 ± 0.08 | 1.43 ± 0.15 | 1.32 ± 0.069
32 | GDLASLVLLNGRLRNKS [RPP1] | 2.83 ± 0.054 | 2.85 ± 0.041 | 2.83 ± 0.04 | 2.81 ± 0.038
33 | DENELKKSEEKLREKVN [MTW1] | 2.97 ± 0.27 |  |  | 
34 | RFWSFMKTQRFVSNMGF [SIR4] | 1.55 ± 0.21 | 1.4 ± 0.11 | 1.82 ± 0.13 | 1.68 ± 0.048
35 | AVALAASDLVLIVIDVV [SNU114] | 2.08 ± 0.052 | 2.5 ± 0.06 | 2.75 ± 0.094 | 2.13 ± 0.05
36 | SEVANNGLIISWSNGKI [RRP42] | 2.28 ± 0.13 | 1.66 ± 0.054 | 3.03 ± 0.091 | 2.54 ± 0.14
37 | TKPSETPATIVKKPTFT [YOR098C/NUP1] | 2.91 ± 0.05 | 3.08 ± 0.057 | 3.09 ± 0.043 | 3.04 ± 0.054
38 | IITKNENFLKEVFQLRI [GAL11] | 1.56 ± 0.091 | 1.54 ± 0.067 | 1.54 ± 0.11 | 1.26 ± 0.062
39 | IELLSDLINILEKKGFS [LIN1] | 1.22 ± 0.075 | 1.43 ± 0.082 | 1.28 ± 0.17 | 1.35 ± 0.062
40 | LLKKATKPEVASDMSDE [CDC53] | 2.67 ± 0.11 | 2.61 ± 0.14 | 2.84 ± 0.086 | 2.89 ± 0.11
41 | IGDDGYDLLISTLTTIS [SRB5] | 2.18 ± 0.054 | 2.1 ± 0.058 | 1.52 ± 0.085 | 2.2 ± 0.061
42 | AIITDDLDTVLKKDIES [SRP72] | 1.99 ± 0.047 | 2.32 ± 0.047 | 2.43 ± 0.061 | 2.43 ± 0.049
43 | SRRPEPKKFGGKGARSR [RPS16A] | 3.06 ± 0.11 | 3.25 ± 0.095 | 3.25 ± 0.077 | 3.06 ± 0.052
44 | SKRSKIDIINKLILHAI [YML103C/NUP188] | 1.23 ± 0.13 | 1.23 ± 0.11 | 1.04 ± 0.13 | 1.1 ± 0.079
45 | DYAQLDHLVSSIPMGGQ [ARP9] | 2.1 ± 0.065 | 2.36 ± 0.071 | 2.36 ± 0.067 | 2.15 ± 0.053
46 | IGQSEELSDKEIYTVED [ISW2] | 3.35 ± 0.13 | 3.46 ± 0.14 | 3.31 ± 0.17 | 3.44 ± 0.13
47 | AIALAVRLGEEDMIRSV [RPN1] | 3.42 ± 0.14 | 3.4 ± 0.13 | 3.39 ± 0.1 | 3.39 ± 0.14
48 | LKKRYDLSYNFNVHEVP [YMR129W/POM152] | 2.78 ± 0.05 | 2.6 ± 0.056 | 2.7 ± 0.058 | 2.82 ± 0.042
49 | HCITSITLALADAGIEL [MTR3] | 1.5 ± 0.071 | 1.86 ± 0.094 |  | 1.55 ± 0.097
50 | VSLIKKYKLISRIVEIF [YML103C/NUP188] | 1.34 ± 0.054 | 1.94 ± 0.049 | 1.64 ± 0.067 | 1.46 ± 0.054
51 | KKLPRKTHRGLRKVACI [RPL3] | 1.61 ± 0.062 | 3.5 ± 0.098 | 2.65 ± 0.064 | 3.23 ± 0.058
52 | EEEYDETHETNISNAKL [YAR002W/NUP60] | 3.35 ± 0.073 | 3.21 ± 0.09 | 3.44 ± 0.087 | 3.31 ± 0.065
53 | KFGYILCVLDYDNIDIQ [RPB7] | 2.02 ± 0.1 | 2.08 ± 0.09 | 3.13 ± 0.11 | 2.04 ± 0.13
